The target in this assay is Actin filaments (F-actin) polymerized in vitro from rabbit skeletal muscle actin (Oryctolagus cuniculus (Rabbit), UniProt P68135). Put plainly: F-actin co-sedimentation (pelleting).

From publication PMC4939424 (2016) come the findings set out here.

B1: GST-fused PI3KAP/XB130 fragment, GST-del1 without the C-terminal 70 amino acids (GST-del2) (protein)
chain: LPSRDCQDDLYDDVEVSELIAVVEPAEEAAPAVDANSGSEPDRVYLDLTPVKSFLHSSSEAQAQASLPAVPHQDDVAETLTVDPKPGTTPEEPHTESPGDPEVQQRQPEVQESSEPIEPTPRITMVKLQAEQQRISFPANCPDTMASAPIAASPPVKEKLRVTSAEIKLGKNRTEAEVKRYTEEKERLERSKEEIRGHLAQLRREKRELKETLLRCTDKGVLAKLEQTLKKIDEECRMEESRRVDLELSIMEVKDNLKKAEAG
As to B1, the binding result is on record as “no binding”.

B2: GST-fused PI3KAP/XB130 C-terminal fragment, amino acid residues 511-843 (GST-del1) (protein)
chain: LPSRDCQDDLYDDVEVSELIAVVEPAEEAAPAVDANSGSEPDRVYLDLTPVKSFLHSSSEAQAQASLPAVPHQDDVAETLTVDPKPGTTPEEPHTESPGDPEVQQRQPEVQESSEPIEPTPRITMVKLQAEQQRISFPANCPDTMASAPIAASPPVKEKLRVTSAEIKLGKNRTEAEVKRYTEEKERLERSKEEIRGHLAQLRREKRELKETLLRCTDKGVLAKLEQTLKKIDEECRMEESRRVDLELSIMEVKDNLKKAEAGPVTLGTTVDTTHLDNMSPRPQPKAATPNPPPDSTPVNSASVLKNRPLSVMVTGKGTVLQKAKEWEKKGAS
Take B2: the binding result is “binds”.

B3: GST-fused C-terminal 70 amino acid residues of PI3KAP/XB130 (GST-del3) (protein)
chain: PVTLGTTVDTTHLDNMSPRPQPKAATPNPPPDSTPVNSASVLKNRPLSVMVTGKGTVLQKAKEWEKKGAS
In the case of B3, the binding result is given as “binds”.
